Assay results taken from patent publication US20220306751A1 (MYTHIC THERAPEUTICS, published 2022).

T1: CD123 Protein, His Tag, Acro Biosciences Cat. No. ILA-H52H6 (Homo sapiens (Human), UniProt P26951 19-305)
T1 construct: Bought protein; not shown: His tag
T1 sequence: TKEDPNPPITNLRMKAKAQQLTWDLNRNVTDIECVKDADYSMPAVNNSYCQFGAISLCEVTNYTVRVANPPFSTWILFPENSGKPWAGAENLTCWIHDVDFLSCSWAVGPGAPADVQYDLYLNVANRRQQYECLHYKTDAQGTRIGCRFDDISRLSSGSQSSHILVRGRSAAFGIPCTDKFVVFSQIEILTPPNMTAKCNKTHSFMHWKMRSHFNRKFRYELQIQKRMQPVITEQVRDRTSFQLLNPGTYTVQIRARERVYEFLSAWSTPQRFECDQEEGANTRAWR


Target: T1, CD123 Protein, His Tag, Acro …
Experiment: BLI, IgG on anti-human Fc sensor, 50 nM CD123, pH 7.4 and pH 5.4
From the text: We selected IMGN632 (Heavy chain SEQ ID NO: 1, Light chain SEQ ID NO: 2) as a CD123-binding monoclonal antibody for pH engineering via histidine scanning. Briefly, CDRs in the heavy chain were identified using the methods described by Kabat et al (Kabat et al. (1992) Sequences of Proteins of Immunological Interest, DIANE publishing) and IMGT (Lefranc M P (1999) “The IMGT unique numbering for Immunoglobulins, T cell receptors and Ig-like domains” The Immunologist 7, 132-136), and for each CDR, residues falling under either or both Kabat and IMGT CDR definitions were called as CDR residues. To generate pH-dependent sequence variants, individual amino acid residues within the heavy chain CDRs were systematically substituted with a histidine, one at a time (MYT1252-MYT1292). In cases where the starting CDR residue was a histidine, it was mutated to an alanine. Antibody variants with only one histidine or alanine mutation in a heavy chain CDR were generated by co-transfection of Expi293 cells with a) one heavy chain sequence variant, and b) the corresponding starting ABPC light chain using methods known to the art. After allowing for four days of protein expression, cell culture supernatants were collected, quantified by SDS-PAGE analysis (FIG. 1), and the pH dependence of the variant was evaluated using biolayer interferometry (BLI) on an Octet RED 384 instrument. For constructs MYT1252, MYT1254-MYT1287, and MYT1289-1292, 104, of cell culture supernatant was diluted into 1904, of 1× PBST pH 7.4. For MYT1253 and MYT1288 254, and 504, of cell culture supernatant was diluted into 1754, and 1504, respectively. […] The resulting diluted supernatants were then captured on an anti-human Fc sensor (Forte Bio). A baseline was established using 1× PBST (50 mM Potassium Phosphate Buffer+150 mM NaCl+0.05% Tween 20) pH 7.4, and the sensor was associated with 50 nM of CD123 (CD123 Protein, His Tag, Acro Biosciences Cat. No. ILA-H52H6, Lot No. 1741d-89CF1-KB) in 1×PBST pH 7.4 for 120 sec to generate an association curve. In the dissociation phase, the antibody-antigen complex on the sensor was exposed to 1× PBST pH 7.4 for 300-600 sec. Baseline, association, and dissociation were repeated using 1×PBST pH 5.4 throughout in a separate condition.

| Binder | binding result |
| --- | --- |
| MYT1270 (antibody, V domains shown, IgG) VH: QVQLVQSGAEVKKPGASVKVSCKASGYIFTSSIMHWVRQAPGQGLEWIGYIKPYNDGHKYNEKFKGRATLTSDRSTSTAYMELSSLRSEDTAVYYCAREGGNDYYDTMDYWGQGTLVTVSS VL: DIQMTQSPSSLSASVGDRVTITCRASQDINSYLSWFQQKPGKAPKTLIYRVNRLVDGVPSRFSGSGSGNDYTLTISSLQPEDFATYYCLQYDAFPYTFGQGTKVEIK | binds |
| MYT1274 (antibody, V domains shown, IgG) VH: QVQLVQSGAEVKKPGASVKVSCKASGYIFTSSIMHWVRQAPGQGLEWIGYIKPYNDGTKYNHKFKGRATLTSDRSTSTAYMELSSLRSEDTAVYYCAREGGNDYYDTMDYWGQGTLVTVSS VL: DIQMTQSPSSLSASVGDRVTITCRASQDINSYLSWFQQKPGKAPKTLIYRVNRLVDGVPSRFSGSGSGNDYTLTISSLQPEDFATYYCLQYDAFPYTFGQGTKVEIK | binds |
| MYT1272 (antibody, V domains shown, IgG) VH: QVQLVQSGAEVKKPGASVKVSCKASGYIFTSSIMHWVRQAPGQGLEWIGYIKPYNDGTKHNEKFKGRATLTSDRSTSTAYMELSSLRSEDTAVYYCAREGGNDYYDTMDYWGQGTLVTVSS VL: DIQMTQSPSSLSASVGDRVTITCRASQDINSYLSWFQQKPGKAPKTLIYRVNRLVDGVPSRFSGSGSGNDYTLTISSLQPEDFATYYCLQYDAFPYTFGQGTKVEIK | binds |
| MYT1271 (antibody, V domains shown, IgG) VH: QVQLVQSGAEVKKPGASVKVSCKASGYIFTSSIMHWVRQAPGQGLEWIGYIKPYNDGTHYNEKFKGRATLTSDRSTSTAYMELSSLRSEDTAVYYCAREGGNDYYDTMDYWGQGTLVTVSS VL: DIQMTQSPSSLSASVGDRVTITCRASQDINSYLSWFQQKPGKAPKTLIYRVNRLVDGVPSRFSGSGSGNDYTLTISSLQPEDFATYYCLQYDAFPYTFGQGTKVEIK | binds |
| MYT1285 (antibody, V domains shown, IgG) VH: QVQLVQSGAEVKKPGASVKVSCKASGYIFTSSIMHWVRQAPGQGLEWIGYIKPYNDGTKYNEKFKGRATLTSDRSTSTAYMELSSLRSEDTAVYYCAREGGNHYYDTMDYWGQGTLVTVSS VL: DIQMTQSPSSLSASVGDRVTITCRASQDINSYLSWFQQKPGKAPKTLIYRVNRLVDGVPSRFSGSGSGNDYTLTISSLQPEDFATYYCLQYDAFPYTFGQGTKVEIK | binds |
| MYT1278 (antibody, V domains shown, IgG) VH: QVQLVQSGAEVKKPGASVKVSCKASGYIFTSSIMHWVRQAPGQGLEWIGYIKPYNDGTKYNEKFKHRATLTSDRSTSTAYMELSSLRSEDTAVYYCAREGGNDYYDTMDYWGQGTLVTVSS VL: DIQMTQSPSSLSASVGDRVTITCRASQDINSYLSWFQQKPGKAPKTLIYRVNRLVDGVPSRFSGSGSGNDYTLTISSLQPEDFATYYCLQYDAFPYTFGQGTKVEIK | binds |
| MYT1282 (antibody, V domains shown, IgG) VH: QVQLVQSGAEVKKPGASVKVSCKASGYIFTSSIMHWVRQAPGQGLEWIGYIKPYNDGTKYNEKFKGRATLTSDRSTSTAYMELSSLRSEDTAVYYCAREHGNDYYDTMDYWGQGTLVTVSS VL: DIQMTQSPSSLSASVGDRVTITCRASQDINSYLSWFQQKPGKAPKTLIYRVNRLVDGVPSRFSGSGSGNDYTLTISSLQPEDFATYYCLQYDAFPYTFGQGTKVEIK | binds |
| MYT1279 (antibody, V domains shown, IgG) VH: QVQLVQSGAEVKKPGASVKVSCKASGYIFTSSIMHWVRQAPGQGLEWIGYIKPYNDGTKYNEKFKGRATLTSDRSTSTAYMELSSLRSEDTAVYYCHREGGNDYYDTMDYWGQGTLVTVSS VL: DIQMTQSPSSLSASVGDRVTITCRASQDINSYLSWFQQKPGKAPKTLIYRVNRLVDGVPSRFSGSGSGNDYTLTISSLQPEDFATYYCLQYDAFPYTFGQGTKVEIK | binds |
| MYT1287 (antibody, V domains shown, IgG) VH: QVQLVQSGAEVKKPGASVKVSCKASGYIFTSSIMHWVRQAPGQGLEWIGYIKPYNDGTKYNEKFKGRATLTSDRSTSTAYMELSSLRSEDTAVYYCAREGGNDYHDTMDYWGQGTLVTVSS VL: DIQMTQSPSSLSASVGDRVTITCRASQDINSYLSWFQQKPGKAPKTLIYRVNRLVDGVPSRFSGSGSGNDYTLTISSLQPEDFATYYCLQYDAFPYTFGQGTKVEIK | binds |
| MYT1275 (antibody, V domains shown, IgG) VH: QVQLVQSGAEVKKPGASVKVSCKASGYIFTSSIMHWVRQAPGQGLEWIGYIKPYNDGTKYNEHFKGRATLTSDRSTSTAYMELSSLRSEDTAVYYCAREGGNDYYDTMDYWGQGTLVTVSS VL: DIQMTQSPSSLSASVGDRVTITCRASQDINSYLSWFQQKPGKAPKTLIYRVNRLVDGVPSRFSGSGSGNDYTLTISSLQPEDFATYYCLQYDAFPYTFGQGTKVEIK | binds |

The next lines start with the values.

| binding result | Binder |
| --- | --- |
| binds | MYT1277 (antibody, V domains shown, IgG) VH: QVQLVQSGAEVKKPGASVKVSCKASGYIFTSSIMHWVRQAPGQGLEWIGYIKPYNDGTKYNEKFHGRATLTSDRSTSTAYMELSSLRSEDTAVYYCAREGGNDYYDTMDYWGQGTLVTVSS VL: DIQMTQSPSSLSASVGDRVTITCRASQDINSYLSWFQQKPGKAPKTLIYRVNRLVDGVPSRFSGSGSGNDYTLTISSLQPEDFATYYCLQYDAFPYTFGQGTKVEIK |
| binds | MYT1284 (antibody, V domains shown, IgG) VH: QVQLVQSGAEVKKPGASVKVSCKASGYIFTSSIMHWVRQAPGQGLEWIGYIKPYNDGTKYNEKFKGRATLTSDRSTSTAYMELSSLRSEDTAVYYCAREGGHDYYDTMDYWGQGTLVTVSS VL: DIQMTQSPSSLSASVGDRVTITCRASQDINSYLSWFQQKPGKAPKTLIYRVNRLVDGVPSRFSGSGSGNDYTLTISSLQPEDFATYYCLQYDAFPYTFGQGTKVEIK |
| binds | MYT1283 (antibody, V domains shown, IgG) VH: QVQLVQSGAEVKKPGASVKVSCKASGYIFTSSIMHWVRQAPGQGLEWIGYIKPYNDGTKYNEKFKGRATLTSDRSTSTAYMELSSLRSEDTAVYYCAREGHNDYYDTMDYWGQGTLVTVSS VL: DIQMTQSPSSLSASVGDRVTITCRASQDINSYLSWFQQKPGKAPKTLIYRVNRLVDGVPSRFSGSGSGNDYTLTISSLQPEDFATYYCLQYDAFPYTFGQGTKVEIK |
| binds | MYT1276 (antibody, V domains shown, IgG) VH: QVQLVQSGAEVKKPGASVKVSCKASGYIFTSSIMHWVRQAPGQGLEWIGYIKPYNDGTKYNEKHKGRATLTSDRSTSTAYMELSSLRSEDTAVYYCAREGGNDYYDTMDYWGQGTLVTVSS VL: DIQMTQSPSSLSASVGDRVTITCRASQDINSYLSWFQQKPGKAPKTLIYRVNRLVDGVPSRFSGSGSGNDYTLTISSLQPEDFATYYCLQYDAFPYTFGQGTKVEIK |
| binds | MYT1286 (antibody, V domains shown, IgG) VH: QVQLVQSGAEVKKPGASVKVSCKASGYIFTSSIMHWVRQAPGQGLEWIGYIKPYNDGTKYNEKFKGRATLTSDRSTSTAYMELSSLRSEDTAVYYCAREGGNDHYDTMDYWGQGTLVTVSS VL: DIQMTQSPSSLSASVGDRVTITCRASQDINSYLSWFQQKPGKAPKTLIYRVNRLVDGVPSRFSGSGSGNDYTLTISSLQPEDFATYYCLQYDAFPYTFGQGTKVEIK |
| binds | MYT1280 (antibody, V domains shown, IgG) VH: QVQLVQSGAEVKKPGASVKVSCKASGYIFTSSIMHWVRQAPGQGLEWIGYIKPYNDGTKYNEKFKGRATLTSDRSTSTAYMELSSLRSEDTAVYYCAHEGGNDYYDTMDYWGQGTLVTVSS VL: DIQMTQSPSSLSASVGDRVTITCRASQDINSYLSWFQQKPGKAPKTLIYRVNRLVDGVPSRFSGSGSGNDYTLTISSLQPEDFATYYCLQYDAFPYTFGQGTKVEIK |
| binds | MYT1273 (antibody, V domains shown, IgG) VH: QVQLVQSGAEVKKPGASVKVSCKASGYIFTSSIMHWVRQAPGQGLEWIGYIKPYNDGTKYHEKFKGRATLTSDRSTSTAYMELSSLRSEDTAVYYCAREGGNDYYDTMDYWGQGTLVTVSS VL: DIQMTQSPSSLSASVGDRVTITCRASQDINSYLSWFQQKPGKAPKTLIYRVNRLVDGVPSRFSGSGSGNDYTLTISSLQPEDFATYYCLQYDAFPYTFGQGTKVEIK |
